The record followed here is US20110086338A1.

Assay [1] addresses T7-bio: coliphage T7 major capsid protein gp10A fused to the 15-amino acid biotinylation peptide, biotinylated in vivo by the host BLP (Enterobacteria phage T7). Kind of assay: TEM of phage adsorbed to carrier E. coli cells, streptavidin-coated QDs in excess.
Assay [2] shares this target. The assay is described as follows: flow cytometry of carrier E. coli cells with phage at MOI 5 and streptavidin-QDs. Background: Flow cytometry measures light scatter and fluorescence of single cells or particles in a stream.

Chain of T7-bio: coliphage T7 major capsid protein gp10A fused to the 15-amino acid biotinylation peptide, biotinylated in vivo by the host BLP (Enterobacteria phage T7) (P19727 1-349, tags or fused parts left off): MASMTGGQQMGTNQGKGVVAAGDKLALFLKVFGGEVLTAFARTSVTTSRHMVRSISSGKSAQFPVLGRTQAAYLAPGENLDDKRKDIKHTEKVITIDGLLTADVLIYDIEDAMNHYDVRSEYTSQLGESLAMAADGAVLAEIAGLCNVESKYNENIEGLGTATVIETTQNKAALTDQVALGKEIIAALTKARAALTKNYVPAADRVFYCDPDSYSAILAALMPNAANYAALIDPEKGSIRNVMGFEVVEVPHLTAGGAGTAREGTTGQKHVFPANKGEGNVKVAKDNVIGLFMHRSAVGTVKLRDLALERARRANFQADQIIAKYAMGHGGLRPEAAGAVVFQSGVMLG

Consider “streptavidin coated QD (QD 605), Quantum Dot Corporation (from UniProt P22629 37-163)”, for which, in assay [1], the percent of T7-bio phage with no QDs bound was determined as 7% and the percent of the total peptides displayed that carry a QD was 0.5%. In assay [2], this substance returned a fluorescence against the T7-myc control (orders of magnitude) of 2 and a percent of phage-bound cells with fluorescence above the threshold (P2) of 94%.
